Results taken from patent US20220008570A1.

Biological target: human CD33 (human) (UniProt P20138)
Assay: cell-based or functional assay

Sequence of UniProt P20138 (P20138 18-364 limits assumed): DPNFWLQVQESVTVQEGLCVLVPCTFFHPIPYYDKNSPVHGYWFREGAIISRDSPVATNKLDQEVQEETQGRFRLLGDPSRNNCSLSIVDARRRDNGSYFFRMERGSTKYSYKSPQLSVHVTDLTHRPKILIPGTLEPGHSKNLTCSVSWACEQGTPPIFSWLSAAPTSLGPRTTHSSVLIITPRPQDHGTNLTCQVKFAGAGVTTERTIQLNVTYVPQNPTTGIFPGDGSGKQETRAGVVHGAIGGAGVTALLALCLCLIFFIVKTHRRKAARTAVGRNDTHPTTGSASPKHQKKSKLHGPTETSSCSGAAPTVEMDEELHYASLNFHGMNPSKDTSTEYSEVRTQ

Lintuzumab conjugated with Actinium-225 (Ac225) (antibody)
LD50 (dose at which 50% of the cells were killed), cytotoxicity on HL60 leukemia cell suspensions: 8 pCi per mL
